Values belong to the substance of their own block, whether it stands above or below them.
Legend:
[1] = target: Heimdallarchaeota AB125 Vps22 (HeimAB125_14050) (Heimdallarchaeota AB125); test: cross-linking; Vps22 15 µM in 20 mM HEPES-NaOH pH 7.5, 150 mM NaCl; 16 mM EDC with 16 mM Sulfo-NHS (1 h) or 2 mM BS3 (2 h) on ice; SDS-PAGE
[2] = target: Heimdallarchaeota AB125 Vps22 (HeimAB125_14050) (Heimdallarchaeota AB125); test: SEC-MALS; Heimdallarchaeotal Vps22 alone, loaded at 2.0 and 0.5 mg/ml; Superdex 200 increase 10/300; 20 mM Tris-HCl pH 8.0, 200 mM NaCl, 0.5 ml/min
[3] = target: Odinarchaeota (Ca. Odinarchaeum yellowstonii LCB_4) Vps23 (TSG101) (Ca. Odinarchaeum yellowstonii LCB_4); test: SEC-MALS; Odinarchaeota proteins; 100 µl at 2 mg/ml; Superdex 200 10/300 Increase GL; 20 mM Tris pH 8.0, 300 mM NaCl, 0.4 ml/min

- stoichiometry N [1]: 2
- stoichiometry N [2]: 2
Substance: Heimdallarchaeota AB125 Vps22 (HeimAB125_14050) (natural protein)

- stoichiometry N [3]: 2
Substance: Odinarchaeota (Ca. Odinarchaeum yellowstonii LCB_4) Vps23 (TSG101) (natural protein)

- stoichiometry N (Vps28 per Vps23 dimer) [3]: 1
Substance: Odinarchaeota (Ca. Odinarchaeum yellowstonii LCB_4) Vps28 (natural protein)
